From publication PMC10976474 come the findings set out here.

In data set [1] the target is T1, MBP-PhoB (Synechococcus sp. WH7803) (UniProt A0ACE0B1Y2).
T1 sequence: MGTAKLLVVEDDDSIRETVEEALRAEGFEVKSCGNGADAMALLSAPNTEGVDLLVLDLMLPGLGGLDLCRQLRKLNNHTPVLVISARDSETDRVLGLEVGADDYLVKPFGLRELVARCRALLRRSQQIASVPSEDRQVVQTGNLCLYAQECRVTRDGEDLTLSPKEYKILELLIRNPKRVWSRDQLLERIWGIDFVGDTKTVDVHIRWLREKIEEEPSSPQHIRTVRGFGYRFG
Description: EMSA. The following applies: 10 mM Tris-HCl pH 8, 50 mM KCl, 2 mM MgCl2, 5% glycerol, 0.05 mg/mL BSA, 1 mM DTT, 3 mM spermidine (described as 2x binding buffer); 25 ng DNA, 30 min at 23 C ….

The target in data set [2] is T1, MBP-PhoB (Synechococcus sp. WH7803). Description: competition. The following applies: 10 mM Tris-HCl pH 8, 50 mM KCl, 2 mM MgCl2, 5% glycerol, 0.05 mg/mL BSA, 1 mM DTT, 3 mM spermidine (described as 2x binding buffer); 25 ng DNA, 30 min at 23 C ….

Regarding “AGGGGTACTGGATCATTTCTGAAGTTGAAGAAATTGATGGTTTGGAGTTTGGGGACCCCGATTGTATGTTAAAATATCCATATGCAGTTGAACAAGGGGTCCTCGTCCCATGGCCACCATATTCAACAGAAAAAAAGATCATTGTAAGATCTTCCGAGATCAGTGTCATGGTTGATCCAGATGCTCCTCGCCTTGCAGATTATGCCAAATTGAAATCAGAAGAGACCTAATGAAATTTTACACCAGCGTACAACAAGCAGGTA (double strand) [S-PM2d133 (gp43) promoter (full-length fragment)]”, in data set [1], the binding result is on record as “binds”.

For “AGTTCTTCCCGAGGATTTGTTCGATGAATTCTGAACCAGTAACATCACTTTATCTCTCATTTAACCAAATCAAGTATATTCTTGATGTTATGTGGGGAACCGATCCAGTTACAGCAAAACTATTTGCAAACTCTCACGGAGTTGATGATACCGAACTGGAACGTTATCTTTCCTCTCGTTTAACTGATGGTGATATAACTAAAGTAGATTATACAATTCTTGGAGAAAAATGATTAATGTCAAACAAGAAGATAACGGCAGCTTCAC (double strand) [FAM-S-PM2d004 promoter]”, in data set [1], the binding entry is “binds”.

Take “AGTTCTTCCCGAGGATTTGTTCGATGAATTCTGAACCAGTAACATCACTTTATCTCTCATTTAACCAAATCAAGTATATTCTTGATGTTATGTGGGGAACCGATCCAGTTACAGCAAAACTATTTGCAAACTCTCACGGAGTTGATGATACCGAACTGGAACGTTATCTTTCCTCTCGTTTAACTGATGGTGATATAACTAAAGTAGATTATACAATTCTTGGAGAAAAATGATTAATGTCAAACAAGAAGATAACGGCAGCTTCAC (double strand) [S-PM2d004 promoter (full-length fragment)]”: the binding entry in data set [1] and in data set [2] was “binds” throughout.

As to “CAGCAAGAGCGACTTCAATTTCGAAGTTATTATTGTCATGTTTGATTAAATTGTAGGGCGGGTAATTTTTATTGTGATGTGTCATCGAATCCAATCGATGAAATACATCATCCAGACCTACAAAGTGGGGGGAGTAAATATCCCAAGTGAATTTAGTCATTGCTTTCTCCTTTATTTAAGCGAGTTTGAATTAGGATCTCA (double strand) [S-PM2d130 (hsp20) promoter]”, in data set [1], the binding result is “no binding”.

For the sequence “GTAACTTCCGACACAAATTCTTGATAGCGTTCAAAGTTTACTTTAGACATATTAGATAATAAAAGAACTGAATTTGTCAATTCGCTTTTGGCGAGTTGAAAGGTCTTCAAAAGAATCCGCTAGATCTTCCTGTTCGACAAGAGCATCAGCAGATGTCTCATCATCAACATTATACAGCTTCATCTTTGCTCTGTCAATACCAACTGTAAAACGGCGATGCATCGTAGGATCATTATATCGATTCTTCAATTGCTTCACCATAATACGACTGGATTGTTCT (double strand) [S-PM2d136 (mazG) promoter]”, the binding result in data set [1] and in data set [2] was “no binding” each time.

Consider “TACACTATCTAGGAAACTCATAAATTACCTCTTAGAAAAAACTTAATAGAGAAACTTTTTTCTCATAATCCCAACCAATACATTCTAGCACATTTTTCAATGGTTCCAAGAAAGACTTCTCAAACTGAGTCTGATAGTCAATATACTTATCAACGTTAAACTCCTTGGGAATGTCACTGAAGAATGATATGCAGTTCTCCTGAATTGGGTTTGGTGTTCTCAAG (double strand) [FAM-S-PM2d134 promoter]”, for which the binding entry in data set [1] is on record as “binds”.

On to “TACACTATCTAGGAAACTCATAAATTACCTCTTAGAAAAAACTTAATAGAGAAACTTTTTTCTCATAATCCCAACCAATACATTCTAGCACATTTTTCAATGGTTCCAAGAAAGACTTCTCAAACTGAGTCTGATAGTCAATATACTTATCAACGTTAAACTCCTTGGGAATGTCACTGAAGAATGATATGCAGTTCTCCTGAATTGGGTTTGGTGTTCTCAAG (double strand) [S-PM2d134 (uvsX) promoter]”, for which the binding result in data set [1] and in data set [2] was “binds” each time.
